Measurements as given in the Human Domainome abundance scans (Beltran et al. 2025).
± gives the uncertainty stated by the source.

Assay: abundance fitness (aPCA) (normalised: wild type 0, dead -1); higher = more abundant; growth selection in yeast, the domain comes from the species named
Conditions: Homo sapiens

Q: Which abundance fitness does the source give for “NEDD4-like E3 ubiquitin-protein ligase WWP2 F462P, O00308” here?
A: The abundance fitness was -0.605 ± 0.099.

Q: For “NEDD4-like E3 ubiquitin-protein ligase WWP2 F462Q, O00308”, which abundance fitness is on record?
A: Its abundance fitness is -1.02 ± 0.16.

Q: For “NEDD4-like E3 ubiquitin-protein ligase WWP2 F462R, O00308”, which abundance fitness is on record?
A: The abundance fitness was -0.851 ± 0.046.

Q: With “NEDD4-like E3 ubiquitin-protein ligase WWP2 F462S, O00308” as the substance, how does the abundance fitness read?
A: The abundance fitness was -1.04 ± 0.051.

Q: For “NEDD4-like E3 ubiquitin-protein ligase WWP2 F462T, O00308”, which abundance fitness is on record?
A: The abundance fitness was -0.87 ± 0.16.

Q: Which abundance fitness does the source give for “NEDD4-like E3 ubiquitin-protein ligase WWP2 F462V, O00308” here?
A: The abundance fitness was -0.939 ± 0.037.

Q: Which abundance fitness does the source give for “NEDD4-like E3 ubiquitin-protein ligase WWP2 F462W, O00308” here?
A: Its abundance fitness is -0.152 ± 0.066.

Q: With “NEDD4-like E3 ubiquitin-protein ligase WWP2 F462Y, O00308” as the substance, how does the abundance fitness read?
A: The abundance fitness was -0.048 ± 0.081.

Q: For “NEDD4-like E3 ubiquitin-protein ligase WWP2 F472A, O00308”, which abundance fitness is on record?
A: Its abundance fitness is -0.373 ± 0.052.

Q: Which abundance fitness does the source give for “NEDD4-like E3 ubiquitin-protein ligase WWP2 F472C, O00308” here?
A: Its abundance fitness is -0.48 ± 0.067.

Q: For “NEDD4-like E3 ubiquitin-protein ligase WWP2 F472D, O00308”, which abundance fitness is on record?
A: Its abundance fitness is -0.319 ± 0.072.

Q: With “NEDD4-like E3 ubiquitin-protein ligase WWP2 F472E, O00308” as the substance, how does the abundance fitness read?
A: Its abundance fitness is -0.357 ± 0.061.

Q: Which abundance fitness does the source give for “NEDD4-like E3 ubiquitin-protein ligase WWP2 F472H, O00308” here?
A: Its abundance fitness is -0.291 ± 0.033.

Q: With “NEDD4-like E3 ubiquitin-protein ligase WWP2 F472I, O00308” as the substance, how does the abundance fitness read?
A: The abundance fitness was -0.495 ± 0.082.

Q: Which abundance fitness does the source give for “NEDD4-like E3 ubiquitin-protein ligase WWP2 F472K, O00308” here?
A: Its abundance fitness is -0.355 ± 0.07.

Q: For “NEDD4-like E3 ubiquitin-protein ligase WWP2 F472L, O00308”, which abundance fitness is on record?
A: The abundance fitness was -0.289 ± 0.052.

Q: With “NEDD4-like E3 ubiquitin-protein ligase WWP2 F472N, O00308” as the substance, how does the abundance fitness read?
A: Its abundance fitness is -0.373 ± 0.053.

Q: With “NEDD4-like E3 ubiquitin-protein ligase WWP2 F472Q, O00308” as the substance, how does the abundance fitness read?
A: Its abundance fitness is -0.402 ± 0.045.

Q: Which abundance fitness does the source give for “NEDD4-like E3 ubiquitin-protein ligase WWP2 F472S, O00308” here?
A: Its abundance fitness is -0.351 ± 0.048.

Q: For “NEDD4-like E3 ubiquitin-protein ligase WWP2 F472T, O00308”, which abundance fitness is on record?
A: Its abundance fitness is -0.15 ± 0.065.

Q: Which abundance fitness does the source give for “NEDD4-like E3 ubiquitin-protein ligase WWP2 F472V, O00308” here?
A: Its abundance fitness is -0.392 ± 0.044.

Q: With “NEDD4-like E3 ubiquitin-protein ligase WWP2 F472W, O00308” as the substance, how does the abundance fitness read?
A: The abundance fitness was -0.129 ± 0.05.

Q: Which abundance fitness does the source give for “NEDD4-like E3 ubiquitin-protein ligase WWP2 F472Y, O00308” here?
A: The abundance fitness was -0.025 ± 0.057.

Q: With “NEDD4-like E3 ubiquitin-protein ligase WWP2 F479C, O00308” as the substance, how does the abundance fitness read?
A: The abundance fitness was -0.054 ± 0.046.

Q: With “NEDD4-like E3 ubiquitin-protein ligase WWP2 F479D, O00308” as the substance, how does the abundance fitness read?
A: Its abundance fitness is 0.02 ± 0.072.

Q: With “NEDD4-like E3 ubiquitin-protein ligase WWP2 F479E, O00308” as the substance, how does the abundance fitness read?
A: The abundance fitness was 0.027 ± 0.049.

Q: With “NEDD4-like E3 ubiquitin-protein ligase WWP2 F479G, O00308” as the substance, how does the abundance fitness read?
A: The abundance fitness was 0.017 ± 0.04.

Q: Which abundance fitness does the source give for “NEDD4-like E3 ubiquitin-protein ligase WWP2 F479H, O00308” here?
A: The abundance fitness was -0.036 ± 0.083.

Q: Which abundance fitness does the source give for “NEDD4-like E3 ubiquitin-protein ligase WWP2 F479I, O00308” here?
A: The abundance fitness was -0.086 ± 0.07.

Q: For “NEDD4-like E3 ubiquitin-protein ligase WWP2 F479K, O00308”, which abundance fitness is on record?
A: Its abundance fitness is -0.015 ± 0.051.

Q: Which abundance fitness does the source give for “NEDD4-like E3 ubiquitin-protein ligase WWP2 F479L, O00308” here?
A: Its abundance fitness is -0.054 ± 0.049.

Q: Which abundance fitness does the source give for “NEDD4-like E3 ubiquitin-protein ligase WWP2 F479P, O00308” here?
A: The abundance fitness was -0.003 ± 0.054.

Q: Which abundance fitness does the source give for “NEDD4-like E3 ubiquitin-protein ligase WWP2 F479Q, O00308” here?
A: The abundance fitness was -0.082 ± 0.053.

Q: Which abundance fitness does the source give for “NEDD4-like E3 ubiquitin-protein ligase WWP2 F479R, O00308” here?
A: The abundance fitness was -0.046 ± 0.049.

Q: For “NEDD4-like E3 ubiquitin-protein ligase WWP2 F479S, O00308”, which abundance fitness is on record?
A: The abundance fitness was -0.013 ± 0.042.

Q: With “NEDD4-like E3 ubiquitin-protein ligase WWP2 F479T, O00308” as the substance, how does the abundance fitness read?
A: The abundance fitness was 0.025 ± 0.061.

Q: Which abundance fitness does the source give for “NEDD4-like E3 ubiquitin-protein ligase WWP2 F479V, O00308” here?
A: Its abundance fitness is -0.004 ± 0.04.

Q: With “NEDD4-like E3 ubiquitin-protein ligase WWP2 F479W, O00308” as the substance, how does the abundance fitness read?
A: Its abundance fitness is -0.103 ± 0.058.

Q: For “NEDD4-like E3 ubiquitin-protein ligase WWP2 F479Y, O00308”, which abundance fitness is on record?
A: The abundance fitness was -0.18 ± 0.08.

Q: For “NEDD4-like E3 ubiquitin-protein ligase WWP2 G449A, O00308”, which abundance fitness is on record?
A: The abundance fitness was -0.269 ± 0.049.

Q: Which abundance fitness does the source give for “NEDD4-like E3 ubiquitin-protein ligase WWP2 G449C, O00308” here?
A: Its abundance fitness is -0.668 ± 0.076.

Q: With “NEDD4-like E3 ubiquitin-protein ligase WWP2 G449D, O00308” as the substance, how does the abundance fitness read?
A: The abundance fitness was -0.127 ± 0.044.

Q: With “NEDD4-like E3 ubiquitin-protein ligase WWP2 G449E, O00308” as the substance, how does the abundance fitness read?
A: Its abundance fitness is -0.167 ± 0.053.

Q: For “NEDD4-like E3 ubiquitin-protein ligase WWP2 G449F, O00308”, which abundance fitness is on record?
A: The abundance fitness was -0.163 ± 0.052.
